Measurements published in the supplement of paper PMC10567573.

B1: EHMT1 (parent)
chain: SARQGELQKVLLMLVDGIDPNFKM
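Further: lentivirally expressed fusions sorted by FACS into six bins by GFP to DsRed ratio, PSI derived from sequencing read proportions per bin multiplied by bin number.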

Variants of: B1
Test: protein stability index of a GFP-peptide fusion (GPS, HEK-293T) (PSI 1-6); higher = more stable
Details: c terminus: a fixed tail appended
Work on SAHQGELQKVLLMLVDGIDPNFKM yielded a protein stability index of 1.5. Work on SANQGELQKVLLMLVDGIDPNFKM yielded a protein stability index of 2.38. In the case of SAWQGELQKVLLMLVDGIDPNFKM, the protein stability index is reported as 3.4. SAYQGELQKVLLMLVDGIDPNFKM gave a protein stability index of 1.88. SAPQGELQKVLLMLVDGIDPNFKM showed a protein stability index of 2.83. For SAEQGELQKVLLMLVDGIDPNFKM, the protein stability index was 2.2. With SAKQGELQKVLLMLVDGIDPNFKM the protein stability index was 2.8. SAIQGELQKVLLMLVDGIDPNFKM gave a protein stability index of 2.15. For SACQGELQKVLLMLVDGIDPNFKM, the protein stability index was 1.83. For SALQGELQKVLLMLVDGIDPNFKM, the protein stability index was 2.39. With SATQGELQKVLLMLVDGIDPNFKM the protein stability index was 1.76. Work on SAGQGELQKVLLMLVDGIDPNFKM yielded a protein stability index of 1.86. SADQGELQKVLLMLVDGIDPNFKM gave a protein stability index of 1.78. Work on SAAQGELQKVLLMLVDGIDPNFKM yielded a protein stability index of 1.96. Variant SAFQGELQKVLLMLVDGIDPNFKM has a protein stability index of 1.86. SASQGELQKVLLMLVDGIDPNFKM showed a protein stability index of 1.75. Variant SAQQGELQKVLLMLVDGIDPNFKM has a protein stability index of 2.25. Variant SARQGELQKVDLMLVDGIDPNFKM has a protein stability index of 3.35. For SARQGELQKVALMLVDGIDPNFKM, the protein stability index was 2.11. For SARQGELQKVSLMLVDGIDPNFKM, the protein stability index was 2.45. For SARQGELQKVILMLVDGIDPNFKM, the protein stability index was 2.1. Work on SARQGELQKVFLMLVDGIDPNFKM yielded a protein stability index of 2.49. SARQGELQKVGLMLVDGIDPNFKM showed a protein stability index of 3.6. For SARQGELQKVYLMLVDGIDPNFKM, the protein stability index was 1.65. SARQGELQKVKLMLVDGIDPNFKM showed a protein stability index of 2.69. Variant SARQGELQKVMLMLVDGIDPNFKM has a protein stability index of 1.38. Variant SARQGELQKVELMLVDGIDPNFKM has a protein stability index of 3.28. Variant SARQGELQKVHLMLVDGIDPNFKM has a protein stability index of 2.15. SARQGELQKVCLMLVDGIDPNFKM showed a protein stability index of 1.99. SARQGELQKVNLMLVDGIDPNFKM gave a protein stability index of 3.23. SARQGELQKVVLMLVDGIDPNFKM showed a protein stability index of 2.7. SARQGELQKVPLMLVDGIDPNFKM showed a protein stability index of 3.13. Work on SARQGELQKVQLMLVDGIDPNFKM yielded a protein stability index of 2.19. For SARQGELQKVTLMLVDGIDPNFKM, the protein stability index was 2.36. With SARQGELQKVRLMLVDGIDPNFKM the protein stability index was 2.53. In the case of SARQWELQKVLLMLVDGIDPNFKM, the protein stability index is reported as 2.55. With SARQAELQKVLLMLVDGIDPNFKM the protein stability index was 2.65. SARQEELQKVLLMLVDGIDPNFKM gave a protein stability index of 1.59. In the case of SARQRELQKVLLMLVDGIDPNFKM, the protein stability index is reported as 3.6. For SARQYELQKVLLMLVDGIDPNFKM, the protein stability index was 1.92. Work on SARQNELQKVLLMLVDGIDPNFKM yielded a protein stability index of 2.26. For SARQMELQKVLLMLVDGIDPNFKM, the protein stability index was 3.61. Variant SARQCELQKVLLMLVDGIDPNFKM has a protein stability index of 1.79. For SARQTELQKVLLMLVDGIDPNFKM, the protein stability index was 3.12. For SARQHELQKVLLMLVDGIDPNFKM, the protein stability index was 1.97. SARQDELQKVLLMLVDGIDPNFKM gave a protein stability index of 1.94. SARQPELQKVLLMLVDGIDPNFKM showed a protein stability index of 3.53. SARQFELQKVLLMLVDGIDPNFKM showed a protein stability index of 1.98. Work on SARQSELQKVLLMLVDGIDPNFKM yielded a protein stability index of 1.64. In the case of SARQQELQKVLLMLVDGIDPNFKM, the protein stability index is reported as 1.93. SARQIELQKVLLMLVDGIDPNFKM showed a protein stability index of 3.95. Variant SARQGELQKCLLMLVDGIDPNFKM has a protein stability index of 1.77. SARQGELQKYLLMLVDGIDPNFKM showed a protein stability index of 3.4. In the case of SARQGELQKMLLMLVDGIDPNFKM, the protein stability index is reported as 2.12. Variant SARQGELQKPLLMLVDGIDPNFKM has a protein stability index of 2.43. In the case of SARQGELQKKLLMLVDGIDPNFKM, the protein stability index is reported as 2.47. In the case of SARQGELQKLLLMLVDGIDPNFKM, the protein stability index is reported as 1.25. Work on SARQGELQKILLMLVDGIDPNFKM yielded a protein stability index of 2.01. SARQGELQKRLLMLVDGIDPNFKM showed a protein stability index of 1.88. Work on SARQGELQKSLLMLVDGIDPNFKM yielded a protein stability index of 2.29. SARQGELQKTLLMLVDGIDPNFKM gave a protein stability index of 1.99. In the case of SARQGELQKDLLMLVDGIDPNFKM, the protein stability index is reported as 3.36. SARQGELQKWLLMLVDGIDPNFKM showed a protein stability index of 1.77. Work on SARQGELQKELLMLVDGIDPNFKM yielded a protein stability index of 3.02. Variant SARQGELQKHLLMLVDGIDPNFKM has a protein stability index of 2.16. For SARQGELQKNLLMLVDGIDPNFKM, the protein stability index was 3.15. With SARQGELQKQLLMLVDGIDPNFKM the protein stability index was 1.72. For SARQGELQKGLLMLVDGIDPNFKM, the protein stability index was 1.94. SARQGELQKFLLMLVDGIDPNFKM gave a protein stability index of 4.02. With SARQGELQKALLMLVDGIDPNFKM the protein stability index was 2.33. With EARQGELQKVLLMLVDGIDPNFKM the protein stability index was 1.66. FARQGELQKVLLMLVDGIDPNFKM gave a protein stability index of 1.97. PARQGELQKVLLMLVDGIDPNFKM showed a protein stability index of 1.83. For MARQGELQKVLLMLVDGIDPNFKM, the protein stability index was 1.42. Work on HARQGELQKVLLMLVDGIDPNFKM yielded a protein stability index of 2.42. RARQGELQKVLLMLVDGIDPNFKM gave a protein stability index of 2.2. QARQGELQKVLLMLVDGIDPNFKM showed a protein stability index of 2.03. NARQGELQKVLLMLVDGIDPNFKM gave a protein stability index of 2.67. WARQGELQKVLLMLVDGIDPNFKM gave a protein stability index of 2.93. Variant DARQGELQKVLLMLVDGIDPNFKM has a protein stability index of 1.18. In the case of CARQGELQKVLLMLVDGIDPNFKM, the protein stability index is reported as 2.34. Work on YARQGELQKVLLMLVDGIDPNFKM yielded a protein stability index of 1.45. KARQGELQKVLLMLVDGIDPNFKM gave a protein stability index of 2.31. GARQGELQKVLLMLVDGIDPNFKM gave a protein stability index of 2.05. For LARQGELQKVLLMLVDGIDPNFKM, the protein stability index was 1.03. For TARQGELQKVLLMLVDGIDPNFKM, the protein stability index was 2.12. With IARQGELQKVLLMLVDGIDPNFKM the protein stability index was 1.39. With SARQGELQDVLLMLVDGIDPNFKM the protein stability index was 1.62. With SARQGELQSVLLMLVDGIDPNFKM the protein stability index was 2.79. In the case of SARQGELQNVLLMLVDGIDPNFKM, the protein stability index is reported as 1.91. Work on SARQGELQTVLLMLVDGIDPNFKM yielded a protein stability index of 2.9. For SARQGELQRVLLMLVDGIDPNFKM, the protein stability index was 1.68. For SARQGELQVVLLMLVDGIDPNFKM, the protein stability index was 4.22. Work on SARQGELQFVLLMLVDGIDPNFKM yielded a protein stability index of 3.96.
